1 molecule from patent US20110126299A1 (published 2011) can be followed below.

For this assay, the target named is T1, λ2^315 Ig L-chain (idiotype, Id) peptide on I-E^d (mouse).
T1 peptide: ALWFRNHFVFG
The assay can be described thus: activation reporter or marker.

B1: 4B2A1 TCR (TCR, V domains shown)
Valpha: QQKVQQSPESLIVPEGAMTSLNCTFSDSASQYFAWYRQQSGKAPKALMSIFSNGEKEEGRFTIHLNKASLHFSLHIRDSQPSDSALYLCAVRGPNTGNYKYVFGAGTRLKVIA
Vbeta: EAAVTQSPRNKVAVTGGKVTLSCNQTNNHNNMYWYRQDTGHGLRLIHYSYGAGSTEKGDIPDGYKASRPSQENFSLILELATPSQTSVYFCASGDAGQGHSDYTFGSGTRLLVI
For the molecule B1, the binding result is “recognises”.
